Laboratory results from US20260167721A1 (ABLEXIS, published 2026).
Residue numbers refer to the chain shown, from its start. Values belong to the binder of their own block, whether it stands above or below them.

Key:
[1] = molecular target: T1, recombinant human CD3 epsilon/delta heterodimer (human, UniProt P07766 23-126; P04234 22-105); experiment: Octet BLI, mAb on FAB2G sensor, hCD3 E/D 200-50 nM; R^2 0.98;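 note: antibodies purified from hybridoma supernatants, measured by Octet binding to recombinant human CD3 protein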
T1 construct: Recombinant protein in solution (200-50 nM) in the Octet assay; also called hCD3 E/D; human CD3E/D
T1 sequence (P07766 23-126, stated change not applied, chain 1 of 2): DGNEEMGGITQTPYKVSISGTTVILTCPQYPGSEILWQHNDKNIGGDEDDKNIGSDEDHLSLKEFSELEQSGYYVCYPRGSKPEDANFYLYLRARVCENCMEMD
T1 sequence (P04234 22-105, stated change not applied, chain 2 of 2): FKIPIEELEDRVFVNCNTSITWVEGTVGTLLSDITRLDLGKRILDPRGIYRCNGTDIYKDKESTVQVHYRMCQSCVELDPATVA
Description: (§1) Samples were evaluated by flow cytometry analysis against Jurkat and human Pan-T cells (FIG. 1B) as well as by Octet against recombinant human CD3 proteins to evaluate apparent affinities and binding off-rates (Table 6, infra).

[2] = molecular target: T2, recombinant human CD3 epsilon/gamma heterodimer (human, UniProt P07766 23-126; P09693 23-116); experiment: Octet BLI, mAb on FAB2G sensor, hCD3 E/G 200-50 nM; R^2 0.79
T2 construct: Recombinant protein in solution (200-50 nM) in the Octet assay; also called hCD3 E/G
T2 sequence (P07766 23-126, chain 1 of 2): as the sequence (P07766 23-126, stated change not applied, chain 1 of 2) above
T2 sequence (P09693 23-116, chain 2 of 2): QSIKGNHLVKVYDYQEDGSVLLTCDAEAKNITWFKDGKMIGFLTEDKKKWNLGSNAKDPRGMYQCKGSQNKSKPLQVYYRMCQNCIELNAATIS
Description: as §1

[3] = molecular target: T1, recombinant human CD3 epsilon/delta …; experiment: Octet BLI, mAb on FAB2G sensor, hCD3 E/D 200-50 nM; R^2 0.97
Description: as §1

[4] = molecular target: T2, recombinant human CD3 epsilon/gamma …; experiment: Octet BLI, mAb on FAB2G sensor, hCD3 E/G 200-50 nM; R^2 0.91
Description: as §1

[5] = molecular target: T1, recombinant human CD3 epsilon/delta …; experiment: Octet BLI, mAb on FAB2G sensor, hCD3 E/D 200-50 nM; R^2 0.99
[6] = molecular target: T2, recombinant human CD3 epsilon/gamma …; experiment: Octet BLI, mAb on FAB2G sensor, hCD3 E/G 200-50 nM; R^2 0.63
Description: as §1

[7] = molecular target: T3, human CD3 (TCR/CD3 complex) on the cell surface (human, UniProt P07766 23-207; P09693 23-182; P04234 22-171; P20963 22-164); experiment: flow cytometry, Pan-T cells, 1 ug/mL
T3 construct: whole, on cells; also called CD3 on Pan-T cells; CD3 on Jurkat WT cells
T3 sequence (P07766 23-207, chain 1 of 4): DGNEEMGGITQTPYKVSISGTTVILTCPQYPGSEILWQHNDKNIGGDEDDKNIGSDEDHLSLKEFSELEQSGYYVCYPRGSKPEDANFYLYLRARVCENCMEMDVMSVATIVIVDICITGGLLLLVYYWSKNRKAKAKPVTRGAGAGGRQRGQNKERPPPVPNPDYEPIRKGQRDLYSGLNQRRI
T3 sequence (P09693 23-182, chain 2 of 4): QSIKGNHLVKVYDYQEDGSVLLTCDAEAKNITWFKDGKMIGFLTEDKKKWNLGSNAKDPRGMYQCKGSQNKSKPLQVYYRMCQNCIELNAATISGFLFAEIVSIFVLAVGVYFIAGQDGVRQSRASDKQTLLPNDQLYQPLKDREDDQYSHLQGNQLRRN
T3 sequence (P04234 22-171, chain 3 of 4): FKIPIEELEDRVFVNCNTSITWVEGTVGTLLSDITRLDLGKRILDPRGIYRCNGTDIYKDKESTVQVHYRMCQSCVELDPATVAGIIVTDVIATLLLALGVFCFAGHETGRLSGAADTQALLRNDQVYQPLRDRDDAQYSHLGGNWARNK
T3 sequence (P20963 22-164, chain 4 of 4): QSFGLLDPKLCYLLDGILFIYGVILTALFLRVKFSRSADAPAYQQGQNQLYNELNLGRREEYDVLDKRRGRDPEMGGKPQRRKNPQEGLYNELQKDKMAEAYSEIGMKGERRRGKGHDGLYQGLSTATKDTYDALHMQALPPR

[8] = molecular target: T3, human CD3 (TCR/CD3 complex) on the cell …; experiment: flow cytometry, Pan-T cells, 10 ug/mL
[9] = molecular target: T3, human CD3 (TCR/CD3 complex) on the cell …; experiment: flow cytometry, Jurkat WT cells, 1 ug/mL
[10] = molecular target: T3, human CD3 (TCR/CD3 complex) on the cell …; experiment: flow cytometry, Jurkat WT cells, 10 ug/mL
recombinant CD3 proteins [11] = molecular target: T4, recombinant CD3 proteins (UniProt P07766 23-126); experiment: Octet BLI, recombinant CD3; Full R^2 0.995
T4 construct: elsewhere it uses human CD3 E/D and E/G heterodimers
T4 sequence (P07766 23-126): as the sequence (P07766 23-126, stated change not applied, chain 1 of 2) above

recombinant CD3 proteins [12] = molecular target: T4, recombinant CD3 proteins; experiment: Octet BLI, recombinant CD3; Full R^2 0.9943
[13] = molecular target: T3, human CD3 (TCR/CD3 complex) on the cell …; experiment: flow cytometry, gMFI Jurkat WT over Jurkat TCRb KO, 1 ug/mL
[14] = molecular target: T3, human CD3 (TCR/CD3 complex) on the cell …; experiment: flow cytometry, gMFI Jurkat WT over Jurkat TCRb KO, 10 ug/mL
recombinant CD3 proteins [15] = molecular target: T4, recombinant CD3 proteins; experiment: Octet BLI, recombinant CD3; Full R^2 0.999
recombinant CD3 proteins [16] = molecular target: T4, recombinant CD3 proteins; experiment: Octet BLI, recombinant CD3; Full R^2 0.951
recombinant CD3 proteins [17] = molecular target: T4, recombinant CD3 proteins; experiment: Octet BLI, recombinant CD3; Full R^2 0*
recombinant CD3 proteins [18] = molecular target: T4, recombinant CD3 proteins; experiment: Octet BLI, recombinant CD3; Full R^2 0.000*
[19] = molecular target: T1, recombinant human CD3 epsilon/delta …; experiment: Octet BLI, mAb on FAB2G sensor, hCD3 E/D 200-50 nM; R^2 0.60
Description: as §1

[20] = molecular target: T2, recombinant human CD3 epsilon/gamma …; experiment: Octet BLI, mAb on FAB2G sensor, hCD3 E/G 200-50 nM; R^2 0.49
Description: as §1

B2: ABL-CD3-17 (antibody, V domains shown)
VH: EVQLVESGGGLVQPGGSLRLSCAASGFTFSRYSINWVRQAPGKGLEWVSYISSSSSTIYYADSVKGRFTISRDNAKNSLYLQMNSLRDEDTAVYYCARERWELLYFDYWGQGTLVTVSS
VL: NFMLTQPHSVSESPGKTVTISCTRSSGSIASKYVQWYQQRPGSSPTTVIYEDNQRPSGVPDRFSGSIDSSSNSASLTISGLKTEDEADYYCQSYDSNNRVFGGGTKLTVL
notes: Chimeric hybridoma mAb: human V, CH1, upper hinge; mouse middle hinge, CH2, CH3
Kd [3]: 103 nM
Response [3]: 0.22
koff [3]: 0.0318 s⁻¹
kon [3]: 309000 M⁻¹ s⁻¹
Kd [4]: 210 nM
koff [4]: 0.132 s⁻¹
kon [4]: 627000 M⁻¹ s⁻¹

B3: ABL-CD3-16 (antibody, V domains shown)
VH: EVQLVESGGGLVQPGGSLRLSCAASGFTFSRYWMTWVRQAPGKGLEWVANIKEDGSEKYCVDSVKGRFTISRDNAKNSLYLQLNSLRAEDTAVYYCARERRTGYFDYWGQGTLVTVSS
VL: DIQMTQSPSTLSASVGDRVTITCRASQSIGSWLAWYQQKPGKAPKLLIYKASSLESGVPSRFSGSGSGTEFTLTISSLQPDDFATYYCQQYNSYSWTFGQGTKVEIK
notes: as for B2
Kd [5]: 29.5 nM
Response [5]: 0.19
koff [5]: 0.00153 s⁻¹
kon [5]: 51900 M⁻¹ s⁻¹
Kd [6]: < 0.001 nM
koff [6]: < 1e-07 s⁻¹
kon [6]: 36200 M⁻¹ s⁻¹

B4: Control Humanized anti-CD3 (high affinity) scFv-Fc knob/TM (bispecific antibody)
scFv: EVQLVESGGGLVQPGGSLRLSCAASGFTFSTYAMNWVRQAPGKGLEWVGRIRSKYNNYATYYADSVKGRFTISRDDSKNTLYLQMNSLRAEDTAVYYCVRHGNFGDSYVSWFAYWGQGTLVTVSSGKPGSGKPGSGKPGSGKPGSQAVVTQEPSLTVSPGGTVTLTCGSSTGAVTTSNYANWVQQKPGKSPRGLIGGTNKRAPGVPARFSGSLLGGKAALTISGAQPEDEADYYCALWYSNHWVFGGGTKLTVLGGGGSDKTHTCPPCPAPEFEGGPSVFLFPPKPKDTLMISRTPEVTCVVVDVSHEDPEVKFNWYVDGVEVHNAKTKPREEQYNSTYRVVSVLTVLHQDWLNGKEYKCKVSNKALPASIEKTISKAKGQPREPQVYTLPPCREEMTKNQVSLWCLVKGFYPSDIAVEWESNGQPENNYKTTPPVLDSDGSFFLYSKLTVDKSRWQQGNVFSCSVMHEALHNHYTQKSLSLSPGK
heavy: EVQLVQSGAEVKKPGSSVKVSCKASGYTITDSNIHWVRQAPGQSLEWIGYIYPYNGGTDYNQKFKNRATLTVDNPTNTAYMELSSLRSEDTAFYYCVNGNPWLAYWGQGTLVTVSSASTKGPSVFPLAPSSKSTSGGTAALGCLVKDYFPEPVTVSWNSGALTSGVHTFPAVLQSSGLYSLSSVVTVPSSSLGTQTYICNVNHKPSNTKVDKRVEPKSCDKTHTCPPCPAPEFEGGPSVFLFPPKPKDTLMISRTPEVTCVVVDVSHEDPEVKFNWYVDGVEVHNAKTKPREEQYNSTYRVVSVLTVLHQDWLNGKEYKCKVSNKALPASIEKTISKAKGQPREPQVCTLPPSREEMTKNQVSLSCAVKGFYPSDIAVEWESNGQPENNYKTTPPVLDSDGSFFLVSKLTVDKSRWQQGNVFSCSVMHEALHNRFTQKSLSLSPGK
light: DIQLTQSPSTLSASVGDRVTITCRASESLDNYGIRFLTWFQQKPGKAPKLLMYAASNQGSGVPSRFSGSGSGTEFTLTISSLQPDDFATYYCQQTKEVPWSFGQGTKVEVKRTVAAPSVFIFPPSDEQLKSGTASVVCLLNNFYPREAKVQWKVDNALQSGNSQESVTEQDSKDSTYSLSSTLTLSKADYEKHKVYACEVTHQGLSSPVTKSFNRGEC
% Positive [7]: 99.4%
gMFI [7]: 66400 gMFI
% Positive [8]: 99.4%
gMFI [8]: 178000 gMFI
gMFI [9]: 15500 gMFI
gMFI [10]: 21600 gMFI
Kd (recombinant CD3 proteins [11]): 44.9 nM
koff (recombinant CD3 proteins [11]): 0.0111 s⁻¹
kon (recombinant CD3 proteins [11]): 248000 M⁻¹ s⁻¹
Kd (recombinant CD3 proteins [12]): 39.5 nM
koff (recombinant CD3 proteins [12]): 0.0102 s⁻¹
kon (recombinant CD3 proteins [12]): 259000 M⁻¹ s⁻¹
Jurkat WT/KO (Fold) [13]: 4 fold
Jurkat WT/KO (Fold) [14]: 5.2 fold

B8: ABL-CD3-18 (antibody, V domains shown)
VH: EVQLVESGEGLVQPGGSLRLSCAASGFTFSSYAMHWVRQAPGKGLEYVSAISSNGGRTYYADSVKGRFTISRDNSKNTLYLQMGSLRAEDMAVYYCARGGSLDYWGQGTLVTVSS
VL: DIVMTQTPLSSPVTPGQPASISCRSSQSLVHSDGNTYLNWLQQRPGQPPRLLIYKISDRFSGVPDRFSGSGAGTDFTLKIGRVEAEDVGVYYCMQSTQFPITFGQGTRLEIK
notes: as for B2
Kd [19]: < 0.001 nM
koff [19]: < 1e-07 s⁻¹
kon [19]: 29100 M⁻¹ s⁻¹
Kd [20]: < 0.001 nM
koff [20]: < 1e-07 s⁻¹
kon [20]: 27000 M⁻¹ s⁻¹

Continued, values first:

Kd [1]: 95.3 nM
Response [1]: 0.27
koff [1]: 0.036 s⁻¹
kon [1]: 378000 M⁻¹ s⁻¹
Kd [2]: 130 nM
koff [2]: 0.0994 s⁻¹
kon [2]: 766000 M⁻¹ s⁻¹
B1: ABL-CD3-21 (antibody, V domains shown)
VH: EVQLVESGGGLVKPGGSLRLSCAASGFTFSSYSMNWVRQAPGKGLEWVSSISRSSSYIYYADSVKGRFTLSRDNAKNSLYLQMNSLRGEDTAIYYCGRDGKGAIFLDYWGQGTLVTVSS
VL: SYELTQPPSVSVSPGQTARITCSGDALPKKYAYWYQQKSGQAPVLVIYEDSKRPSGIPERFSGSSSGTMATLTISGAQVEDEADYYCYSTHSSGNHRVFGGGTKLTVL
notes: as for B2

Kd (recombinant CD3 proteins [15]): 319 nM
koff (recombinant CD3 proteins [15]): 0.00375 s⁻¹
kon (recombinant CD3 proteins [15]): 11800 M⁻¹ s⁻¹
B5: CD3 × CD33-BspAb125 (bispecific antibody)
chain 1: not shown
chain 2: B4 heavy
chain 3: B4 light

Kd (recombinant CD3 proteins [16]): 12 nM
koff (recombinant CD3 proteins [16]): 0.00103 s⁻¹
kon (recombinant CD3 proteins [16]): 85500 M⁻¹ s⁻¹
B6: CD3 × CD33-BspAb123 (bispecific antibody)
chain 1: QTVVTQEPSFSVSPGGTVTLTCGLNSGSVSTSYYPSWYQQTPGQTPRTLIYSTNTRSSGVPDRFSGSILGNKAALTITGAQADDESDYYCVLYMGSGIWVFGCGTKLTVLGGGGSGGGGSGGGGSGGGGSQVQLVQSGAEVKKPGASLKVSCKASGYTFTSYYMHWVRQAPGQCLEWMGIINPSNGNTISAQKFQGRVTMTRDTSTSTVYMEMSSLRSEDTAVYYCVRSWGYYVMDVWGQGTTVTVSSDKTHTCPPCPAPEFEGGPSVFLFPPKPKDTLMISRTPEVTCVVVDVSHEDPEVKFNWYVDGVEVHNAKTKPREEQYNSTYRVVSVLTVLHQDWLNGKEYKCKVSNKALPASIEKTISKAKGQPREPQVYTLPPCREEMTKNQVSLWCLVKGFYPSDIAVEWESNGQPENNYKTTPPVLDSDGSFFLYSKLTVDKSRWQQGNVFSCSVMHEALHNHYTQKSLSLSPGK
chain 2: B4 heavy
chain 3: B4 light

% Positive [7]: 1.5%
gMFI [7]: 2070 gMFI
% Positive [8]: 7.9%
gMFI [8]: 3410 gMFI
Kd (recombinant CD3 proteins [17]): 4.27 nM
koff (recombinant CD3 proteins [17]): 5.33e-05 s⁻¹
kon (recombinant CD3 proteins [17]): 12500 M⁻¹ s⁻¹
gMFI [9]: 1920 gMFI
gMFI [10]: 2090 gMFI
Kd (recombinant CD3 proteins [18]): 4.38 nM
koff (recombinant CD3 proteins [18]): 5.48e-05 s⁻¹
kon (recombinant CD3 proteins [18]): 12500 M⁻¹ s⁻¹
Jurkat WT/KO (Fold) [13]: 0.9 fold
Jurkat WT/KO (Fold) [14]: 1 fold
B7: Control Humanized anti-CD3 (low affinity) scFv-Fc knob/TM (bispecific antibody)
scFv: B4 scFv with A113D
heavy: B4 heavy
light: B4 light
